B1: TRAF1 (other)
chain: MASSSGSSPRPAPDENEFPFGCPPTVCQDPKEPRALCCAGCLSENPRNGEDQICPKCRGEDLQSISPGSRLRTQEKAHPEVAEAGIGCPFAGVGCSFKGSPQSVQEHEVTSQTSHLNLLLGFMKQWKARLGCGLESGPMALEQNLSDLQLQAAVEVAGDLEVDCYRAPCSESQEELALQHFMKEKLLAELEGKLRVFENIVAVLNKEVEASHLALATSIHQSQLDRERILSLEQRVVELQQTLAQKDQALGKLEQSLRLMEEASFDGTFLWKITNVTRRCHESACGRTVSLFSPAFYTAKYGYKLCLRLYLNGDGTGKRTHLSLFIVIMRGEYDALLPWPFRNKVTFMLLDQNNREHAIDAFRPDLSSASFQRPQSETNVASGCPLFFPLSKLQSPKHAYVKDDTMFLKCIVETST
notes: Endogenous protein from T cell lysate
B2: TRAF2 (other)
chain: AAASVTPPGSLELLQPGFSKTLLGTKLEAKYLCSACRNVLRRPFQAQCGHRYCSFCLASILSSGPQNCAACVHEGIYEEGISILESSSAFPDNAARREVESLPAVCPSDGCTWKGTLKEYESCHEGRCPLMLTECPACKGLVRLGEKERHLEHECPERSLSCRHCRAPCCGADVKAHHEVCPKFPLTCDGCGKKKIPREKFQDHVKTCGKCRVPCRFHAIGCLETVEGEKQQEHEVQWLREHLAMLLSSVLEAKPLLGDQSHAGSELLQRCESLEKKTATFENIVCVLNREVERVAMTAEACSRQHRLDQDKIEALSSKVQQLERSIGLKDLAMADLEQKVLEMEASTYDGVFIWKISDFARKRQEAVAGRIPAIFSPAFYTSRYGYKMCLRIYLNGDGTGRGTHLSLFFVVMKGPNDALLRWPFNQKVTLMLLDQNNREHVIDAFRPDVTSSSFQRPVNDMNIASGCPLFCPVSKMEAKNSYVRDDAIFIKAIVDLTGL
notes: as for B1

Experiments:
CAR19.BBζ = target: T1, CAR19.BBζ (human, UniProt P01732 138-206; Q07011 214-255; P20963 52-164); test: co-IP with anti-CAR19 Ab from CAR-T cell lysate, LC-MS/MS
T1 construct: Expressed in human T cells (or Jurkat cells) and pulled down from lysate; also called CAR.BBζ; CAR19.BBC
Protocol: (§1) For Immunoprecipitation (IP), assay, proteins from T cells were extracted in RIPA lysis buffer (Thermo Scientific) supplemented with 1×protease/phosphatase Inhibitors (Thermo Scientific). Equal amount of total proteins was used for IP. Rabbit/mouse IgG (Thermo Scientific) with protein G magnetic beads (Bio-Rad) was used to pre-clear the lysate and anti-CAR19, anti-HA or anti-FLAG Abs were incubated with lysate for 16 hours, and protein G beads were then used for the pull-down. IP products were dissolved in 2× SDS Laemmli buffer for Western blot analysis. […] 2× SDS Laemmli buffer without β-mercaptoethanol was used to dissolve the IP product, and β-mercaptoethanol was supplemented before western blot.
For mass spectrometry (MS) assays, immunoprecipitated samples (3 biological replicates) were subjected to SDS-PAGE and stained with Coomassie blue dye. Lanes for each sample were excised and the proteins were reduced, alkylated, and in-gel digested with trypsin overnight at 37° C. Peptides were extracted, desalted with C18 spin columns (Pierce) and dried via vacuum centrifugation. Peptide samples were stored at −80° C. until further analysis. The peptide samples were analyzed by liquid chromatography coupled to tandem mass spectrometry (LC-MS/MS) in 3 separated experiments using a Thermo Easy nLC 1000 coupled to a QExactive HF or a Waters nanoAcquity coupled to a Thermo LTQ-Orbitrap Velos. Samples were injected onto a PepMap C18 column (75 μm id×25 cm, 2 μm particle size) (Thermo Scientific) and separated over a 90 or 120 min gradient where mobile phase A was 0.1% formic acid in water and mobile phase B consisted of 0.1% formic acid in ACN. The LTQ-Orbitrap Velos was operated in data-dependent mode where the 10 most abundant precursors were selected for CID fragmentation (35% CE). The QExactive HF was operated in data-dependent mode where the 15 most intense precursors were selected for subsequent HCD fragmentation (27 NCE).

CD4 co-receptor = target: T2, CD4 co-receptor (human, UniProt P01730 26-458); test: co-IP with anti-CAR19 Ab, LC-MS/MS
T2 construct: Endogenous protein from T cell lysate

TRAF2 = target: B2; test: co-IP with anti-CAR19 Ab, LC-MS/MS; 'Values not identified are denoted by -'
Protocol: as §1
(§2) For mass spectrometry (MS) assays, immunoprecipitated samples (3 biological replicates) were subjected to SDS-PAGE and stained with Coomassie blue dye. Lanes for each sample were excised and the proteins were reduced, alkylated, and in-gel digested with trypsin overnight at 37° C. Peptides were extracted, desalted with C18 spin columns (Pierce) and dried via vacuum centrifugation. Peptide samples were stored at −80° C. until further analysis. The peptide samples were analyzed by liquid chromatography coupled to tandem mass spectrometry (LC-MS/MS) in 3 separated experiments using a Thermo Easy nLC 1000 coupled to a QExactive HF or a Waters nanoAcquity coupled to a Thermo LTQ-Orbitrap Velos. […]

TRAF1 = target: B1; test: as above
Protocol: as §1, §2

T1 sequence (P20963 other isoform, or with tags, fused parts or gaps): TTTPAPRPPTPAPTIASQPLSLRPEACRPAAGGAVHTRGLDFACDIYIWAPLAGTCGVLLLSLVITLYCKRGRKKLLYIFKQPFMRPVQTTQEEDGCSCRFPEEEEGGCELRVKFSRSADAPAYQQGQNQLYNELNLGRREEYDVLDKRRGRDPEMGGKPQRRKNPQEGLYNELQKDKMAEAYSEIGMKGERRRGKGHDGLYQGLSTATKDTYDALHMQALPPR

| Binder | Area (CAR19.BBζ) | Coverage (CAR19.BBζ) [%] | Peptides (number identified) (CAR19.BBζ) | binding result (CD4 co-receptor) | binding result (TRAF2) | binding result (TRAF1) |
| --- | --- | --- | --- | --- | --- | --- |
| PIK3CD (enzyme, Endogenous protein from T cell lysate) MPPGVDCPMEFWTKEENQSVVVDFLLPTGVYLNFPVSRNANLSTIKQLLWHRAQYEPLFHMLSGPEAYVFTCINQTAEQQELEDEQRRLCDVQPFLPVLRLVAREGDRVKKLINSQISLLIGKGLHEFDSLCDPEVNDFRAKMCQFCEEAAARRQQLGWEAWLQYSFPLQLEPSAQTWGPGTLRLPNRALLVNVKFEGSEESFTFQVSTKDVPLALMACALRKKATVFRQPLVEQPEDYTLQVNGRHEYLYGSYPLCQFQYICSCLHSGLTPHLTMVHSSSILAMRDEQSNPAPQVQKPRAKPPPIPAKKPSSVSLWSLEQPFRIELIQGSKVNADERMKLVVQAGLFHGNEMLCKTVSSSEVSVCSEPVWKQRLEFDINICDLPRMARLCFALYAVIEKAKKARSTKKKSKKADCPIAWANLMLFDYKDQLKTGERCLYMWPSVPDEKGELLNPTGTVRSNPNTDSAAALLICLPEVAPHPVYYPALEKILELGRHSECVHVTEEEQLQLREILERRGSGELYEHEKDLVWKLRHEVQEHFPEALARLLLVTKWNKHEDVAQMLYLLCSWPELPVLSALELLDFSFPDCHVGSFAIKSLRKLTDDELFQYLLQLVQVLKYESYLDCELTKFLLDRALANRKIGHFLFWHLRSEMHVPSVALRFGLILEAYCRGSTHHMKVLMKQGEALSKLKALNDFVKLSSQKTPKPQTKELMHLCMRQEAYLEALSHLQSPLDPSTLLAEVCVEQCTFMDSKMKPLWIMYSNEEAGSGGSVGIIFKNGDDLRQDMLTLQMIQLMDVLWKQEGLDLRMTPYGCLPTGDRTGLIEVVLRSDTIANIQLNKSNMAATAAFNKDALLNWLKSKNPGEALDRAIEEFTLSCAGYCVATYVLGIGDRHSDNIMIRESGQLFHIDFGHFLGNFKTKFGINRERVPFILTYDFVHVIQQGKTNNSEKFERFRGYCERAYTILRRHGLLFLHLFALMRAAGLPELSCSKDIQYLKDSLALGKTEEEALKHFRVKFNEALRESWKTKVNWLAHNVSKDNRQ | 5.1e+06 | 2 | 2 |  |  |  |
| THEMIS (other, Endogenous protein from T cell lysate (Co-IP-MS); also called endogenous THEMIS; TEHMIS [sic]) MALSLEEFVHSLDLRTLPRVLEIQAGIYLEGSIYEMFGNECCFSTGEVIKITGLKVKKIIAEICEQIEGCESLQPFELPMNFPGLFKIVADKTPYLTMEEITRTIHIGPSRLGHPCFYHQKDIKLENLIIKQGEQIMLNSVEEIDGEIMVSCAVARNHQTHSFNLPLSQEGEFYECEDERIYTLKEIVEWKIPKNRTRTVNLTDFSNKWDSTNPFPKDFYGTLILKPVYEIQGVMKFRKDIIRILPSLDVEVKDITDSYDANWFLQLLSTEDLFEMTSKEFPIVTEVIEAPEGNHLPQSILQPGKTIVIHKKYQASRILASEIRSNFPKRHFLIPTSYKGKFKRRPREFPTAYDLEIAKSEKEPLHVVATKAFHSPHDKLSSVSVGDQFLVHQSETTEVLCEGIKKVVNVLACEKILKKSYEAALLPLYMEGGFVEVIHDKKQYPISELCKQFRLPFNVKVSVRDLSIEEDVLAATPGLQLEEDITDSYLLISDFANPTECWEIPVGRLNMTVQLVSNFSRDAEPFLVRTLVEEITEEQYYMMRRYESSASHPPPRPPKHPSVEETKLTLLTLAEERTVDLPKSPKRHHVDITKKLHPNQAGLDSKVLIGSQNDLVDEEKERSNRGATAIAETFKNEKHQK | 3.78e+07 | 4 | 2 |  |  |  |
| CD8α (receptor, Endogenous protein from T cell lysate; The CARs themselves carry a CD8α stalk; the text says that unique peptides outside the stalk were detected; also called CD8A; CD8 co-receptor) not shown | 7.34e+08 | 32 | 6 |  |  |  |
| CAR19.28ζ (receptor, Expressed in human T cells and pulled down from lysate with the anti-CAR19 Ab; also called CAR.28ζ; CAR19.CD28ζ) not shown |  |  |  | no binding | no binding | no binding |
| B1 | 2.31e+08 | 15 | 4 |  |  |  |
| B2 | 5.52e+07 | 14 | 6 |  |  |  |

— patent publication US20240156864A1 (UNIVERSITY OF NORTH CAROLINA AT CHAPEL HILL, published 2024)
